Measured values from publication PMC11914429, “Reprograming of the ubiquitin ligase Ubr1 by intrinsically disordered Roq1 through cooperating multifunctional motifs” (The EMBO Journal, 2025).
Positions count from the first letter of the chain named. Names and notes keep the numbering of the source.

T1: FLAG-Ubr1, P19812
T1 chain: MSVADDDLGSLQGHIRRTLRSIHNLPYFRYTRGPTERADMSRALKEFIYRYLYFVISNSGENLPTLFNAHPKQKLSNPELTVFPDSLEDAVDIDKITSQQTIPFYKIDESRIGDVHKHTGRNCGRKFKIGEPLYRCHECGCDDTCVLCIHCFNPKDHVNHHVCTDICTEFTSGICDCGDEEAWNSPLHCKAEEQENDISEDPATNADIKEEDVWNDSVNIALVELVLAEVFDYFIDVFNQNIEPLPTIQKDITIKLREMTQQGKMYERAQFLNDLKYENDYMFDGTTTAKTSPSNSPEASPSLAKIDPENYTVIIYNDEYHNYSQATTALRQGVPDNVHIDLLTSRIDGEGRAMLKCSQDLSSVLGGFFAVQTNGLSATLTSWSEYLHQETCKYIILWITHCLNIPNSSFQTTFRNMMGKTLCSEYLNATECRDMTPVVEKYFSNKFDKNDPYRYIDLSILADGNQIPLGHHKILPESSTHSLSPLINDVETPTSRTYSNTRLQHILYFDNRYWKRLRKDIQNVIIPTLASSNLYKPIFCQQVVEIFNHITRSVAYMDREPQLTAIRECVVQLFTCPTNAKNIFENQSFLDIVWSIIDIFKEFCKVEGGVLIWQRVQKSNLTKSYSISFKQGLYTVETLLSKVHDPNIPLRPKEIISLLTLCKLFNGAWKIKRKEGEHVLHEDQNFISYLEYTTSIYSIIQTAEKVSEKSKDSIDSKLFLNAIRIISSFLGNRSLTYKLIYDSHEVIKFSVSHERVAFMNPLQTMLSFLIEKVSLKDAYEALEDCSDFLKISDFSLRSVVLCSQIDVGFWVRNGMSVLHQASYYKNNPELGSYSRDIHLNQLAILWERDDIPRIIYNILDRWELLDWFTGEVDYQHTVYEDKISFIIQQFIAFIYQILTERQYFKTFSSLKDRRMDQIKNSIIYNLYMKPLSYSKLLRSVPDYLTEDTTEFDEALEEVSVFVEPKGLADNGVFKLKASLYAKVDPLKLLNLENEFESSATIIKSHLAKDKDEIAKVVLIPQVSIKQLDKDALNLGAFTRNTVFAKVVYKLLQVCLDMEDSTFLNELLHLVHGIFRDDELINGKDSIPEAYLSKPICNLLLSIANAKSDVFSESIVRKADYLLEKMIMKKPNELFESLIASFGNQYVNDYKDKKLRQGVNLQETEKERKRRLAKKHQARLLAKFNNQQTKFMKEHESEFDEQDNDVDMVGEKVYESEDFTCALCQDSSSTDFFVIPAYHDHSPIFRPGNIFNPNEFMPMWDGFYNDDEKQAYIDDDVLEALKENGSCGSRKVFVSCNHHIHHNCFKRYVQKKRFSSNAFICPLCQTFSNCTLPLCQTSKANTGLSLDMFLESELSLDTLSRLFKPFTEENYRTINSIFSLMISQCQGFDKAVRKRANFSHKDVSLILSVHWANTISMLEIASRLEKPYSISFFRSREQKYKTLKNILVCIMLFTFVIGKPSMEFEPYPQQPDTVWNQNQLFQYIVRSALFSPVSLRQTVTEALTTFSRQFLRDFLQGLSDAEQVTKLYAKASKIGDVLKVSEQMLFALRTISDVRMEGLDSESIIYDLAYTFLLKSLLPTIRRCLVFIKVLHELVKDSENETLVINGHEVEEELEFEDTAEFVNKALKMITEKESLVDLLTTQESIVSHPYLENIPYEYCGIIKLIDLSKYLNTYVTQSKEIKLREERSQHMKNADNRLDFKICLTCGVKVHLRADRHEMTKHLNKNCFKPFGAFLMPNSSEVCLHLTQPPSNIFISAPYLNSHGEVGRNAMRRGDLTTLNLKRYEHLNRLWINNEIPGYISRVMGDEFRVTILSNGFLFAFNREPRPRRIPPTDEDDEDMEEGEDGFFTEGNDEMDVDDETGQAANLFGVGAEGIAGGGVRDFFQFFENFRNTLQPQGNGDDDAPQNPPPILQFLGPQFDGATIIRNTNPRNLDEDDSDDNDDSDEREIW

B1: Roq1(22-104) R22A; Y55A; Y56A; F57A; V58A (protein)
chain: ASQRDQTRVDSLVEESPMGDFGINNQPTQPGVIAAAAELTNLGIQENTSSNNNNNNNHGDDENGSRYGHGSSLGGDVHSRRCS
B2: Roq1(22-104) R22A (protein)
chain: B1 chain with A34Y, A35Y, A36F, A37V
B3: Roq1(22-104) Y55A; Y56A; F57A; V58A (protein)
chain: B1 chain with A1R
B4: Rad6 (enzyme, UniProt P06104 1-172, looked up)
chain: MSTPARRRLMRDFKRMKEDAPPGVSASPLPDNVMVWNAMIIGPADTPYEDGTFRLLLEFDEEYPNKPPHVKFLSEMFHPNVYANGEICLDILQNRWTPTYDVASILTSIQSLFNDPNPASPANVEAATLFKDHKSQYVKRVKETVEKSWEDDMDDMDDDDDDDDDDDDDEAD
modifications: biotin (amino-reactive NHS-PEG4-Biotin)
notes: ubiquitin-conjugating enzyme Rad6, not conjugated to ubiquitin; The plasmid pCA528-Rad6 was a gift (Axel Mogk); It is probably the yeast protein; also called unloaded Rad6; source: E. coli BL21(DE3), purified (His6-SUMO removed with Ulp1, SEC); not shown: His6-SUMO, N-terminal, cleaved

Key:
FLAG-Ubr1, P19812 = target: T1, FLAG-Ubr1, P19812; test: biolayer interferometry; settings: chain shown with the change; 50 nM Ubr1, association step 5 min; value read at end of association (300 s); 50 mM HEPES, 150 mM NaCl, 10 mM MgCl2, 0.05% Tween-20, 0.02% BSA; parent: est. 4.5; read off a plot
FLAG-Ubr1 = target: T2, FLAG-Ubr1 (S. cerevisiae, UniProt P19812 1-1950); test: BLI; biotinylated Rad6 immobilised on streptavidin biosensors, 100 nM soluble Ubr1, without or with 200 nM or 1 µM Roq1(22-104); essentially irreversible, only association analysed; settings: both partners purified
T2 construct: ubiquitin ligase Ubr1 of yeast; single subunit of about 200 kDa, nearly 2000 residues; The purified protein comes from a strain with ubr1::nat-PGPD-FLAG-UBR1, so probably the whole protein; source: protease-deficient yeast expressing FLAG-Ubr1 (SSY2908), purified (anti-FLAG agarose, eluted with FLAG peptide); roq1 knockout yeast expressing FLAG-Ubr1, in lysate; not shown: FLAG, N-terminal, kept

Binder | response (FLAG-Ubr1, P19812) | binding result (FLAG-Ubr1)
B1 | 0 nm | –
B2 | 0.5 nm | –
B3 | 2 nm | –
B4 | – | binds
